Reference: US9023998B2, “Near infrared fluorogen and fluorescent activating proteins for in vivo imaging and live-cell biosensing” (Carnegie Mellon University, priority 2013, dated 2015)

Key:
dL9 (SEQ. ID NO: 1) = assay: Fluorescence activation of SKC638 by purified dL9; assay type: biochemical; conditions: molar excess of purified dL9, excitation 630 nm, non-normalized spectrum
Description: The non-normalized emission spectrum shown (black, solid) was acquired using a Quantamaster fluorometer (PTI) by excitation through monochromators set at 630 nm. The primary peak near 730 nm is likely due to contaminating SKC602, while a second, smaller peak is clearly observed near 823 nm, and is likely contributed by the extended chromophore of SKC638.

[1] = Spectral properties of fluoromodules (Table 1); assay type: physicochemical; conditions: fluoromodule (FAP:fluorogen complex)
Description: The spectral properties of fluoromodules assembled from combinations of dL9.2 (SEQ. ID. NO. 2) and dL9.5 (SEQ. ID. NO. 3) with SKC602 and SKC728 are listed in Table 1. dL9.2 (SEQ. ID. NO. 2) is an asymmetric light chain (VL-VL) tandem dimer based upon dL9 (SEQ. ID. NO. 1), hosting the V70A mutation on the N-terminal light chain. dL9.5 (SEQ. ID. NO. 3) is a symmetric light chain (VL-VL) tandem dimer based upon dL9.2 (SEQ. ID. NO. 2) with the V70A mutation propagated to C-terminal chain, and an additional Y96H mutation that is present on both chains. These genetically encoded fluorescent labels yield good brightness in the far-red/NIR spectral regime when combined with their cognate fluorogens.
The dL9.2:SKC602 (SEQ. ID. NO. 2:SKC602) fluoromodule (black, solid) emits at longer wavelengths than existing biliverdin-binding infra-red fluorescent proteins, while retaining the ability to be excited effectively by common illumination sources such as the HeNe laser line (633 nm) as well as lamps equipped with Cy5™-compatible excitation filters. Spectra of dL9.5 (SEQ. ID. NO. 3) bound to SKC602 are highly similar. Excitation and emission spectra are normalized to the highest value within each data set.
(§1) Relative fluorescence quantum yield assessments were conducted via the gradient method (Williams, Winfield and Miller, Relative Fluorescent Quantum Yield Using a Computer-controlled Luminescence Spectrometer, Analyst, vol. 108, 1067-1071 ([…]) against reference dyes Cy5.18 in PBS, pH 7.4 (Mujumdar, et al., Cyanine Dyes Labeling Reagents: Sulfoindocyanine Succinimidyl Esters, Bioconjugate Chemistry, Vol. 4, No. 2, 105-111 (1993) and oxazine-1 in absolute ethanol (Worth, et al., Integrating Sphere Setup for the Traceable Measurement of Absolute Photoluminescence Quantum Yields in the Near Infrared, Analytical Chemistry, 84, 1345-1352 (2012). Fluoromodules were formed by combining a quantity of fluorogen (SKC602 or SKC728) at least 20-fold above the fluoromodule dissociation constant with a molar excess of purified FAP (dL9.2 (SEQ. ID. NO. 2) or dL9.5 (SEQ. ID. NO. 3)). The solutions were incubated at 4° C. with rocking for at least one hour prior to measurements in order to ensure complete complex formation. The optical path length for all sample measurements was 1.00 cm, and all solutions were at room temperature during measurement. Absorbance measurements were taken using a PerkinElmer Lambda 45 UV/VIS spectrometer, while fluorescence emission spectra were measured using a Quantamaster fluorometer equipped with dual excitation and emission monochromators (Photon Technology International). Fluorescence emission was integrated using Spekwin32 (Menges 2013, http://www.effemm2.de/spekwin/spekwin_copyright/de.html. Linear fits and quantum yield ratios were calculated in Microsoft Excel 2013.

[2] = Relative fluorescence quantum yield of fluoromodules, gradient method; assay type: physicochemical; conditions: relative to Cy5.18 in PBS pH 7.4 and oxazine-1 in ethanol; molar excess of FAP; room temperature
Procedure: as §1

[3] = Fluoromodule activity/stability with respect to pH; assay type: physicochemical; conditions: for Longer-term stability of fluorescence across pH: 24 hours
Procedure: […] 4. The averages of five replicates per pH increment are shown as filled circles; bars denote extreme values within each replicate set, and normalization is to the maximum value within all data points. […] Stability of this degree allows the fluoromodule probe to be useful in an extremely wide range of cellular contexts.
A set of titrating buffers occupying pH values from 2.0 to 10.0 in 0.5 unit increments was prepared at room temperature in accordance to a published recipe (Carmody, An Easily Prepared Wide Range Buffer Series, Journal of Chemical Education, Vol. 38, No. 11, pp. 559-560 (1961)) adjusted to accommodate sodium chloride at a concentration of 300 mM. Fluoromodules consisting of dL9.5 bound to SKC602 were prepared by addition of 16.7 μL HPLC-purified SKC602 (300 μM stock in EtOH/5% acetic acid) to 1.30 mL Buffer (10.0 mM Tris, pH 8.0 at RT, supplemented with 300 mM NaCl). Purified dL9.5 was added (1.5 mL, approximately 50 μM stock) and incubated at 4° C. for 90 minutes. […] Fluorescence was then measured using a TECAN Infinite M1000 plate reader with 695/10 nm excitation and 735/10 nm emission windows at a gain of 111. Data was processed in Microsoft Excel 2010: The mean fluorescence intensity value for each pH increment was calculated, and all mean values were divided by the maximum mean intensity in order to normalize fluorescence intensities measured across the entire pH range to a value of 1.0. Extreme values within each set of five replicates calculated to a percentage of the mean for each pH increment in order to indicate the degree of variation across replicate reads.

[4] = test system: HEK293 cells expressing dL9.5; assay: Confocal imaging of HEK293 cells expressing dL9.5 in various cellular contexts; assay type: cell-based; conditions: cytoplasmic dL9.5-eGFP, 200 nM SKC602, fluorogen not washed away
Description: The expressed construct was imaged using an Andor Revolution XD spinning disk confocal (GFP 488:525/50, dL9.5 (SEQ. ID. NO. 3) 640:685/70 AND 640:794/160, 60×1.49 NA oil immersion objective) and the results are shown in FIG. 5. […] The fluorogen was not washed away prior to imaging.
Imaging conditions were similar to those described for obtaining FIG. 5.
CYTOPLASM. HEK293 cells were transfected with, and stably expressing the pCYdL9.5eGFP vector, were thawed from a cryostock and maintained in DMEM/10% FBS for four passages prior to fluorescence imaging procedures. Immediately prior to imaging, growth media was exchanged for HBSS (pH 7.4) supplemented with SKC602 (200 nM final concentration). The cells were allowed to recover at 37° C. with 5% CO2 for 20-30 minutes, and fluoromodule activity under in vivo conditions within the cytoplasm was imaged using an Andor Revolution XD spinning disk confocal microscope (60×1.49 NA oil immersion objective, excitation at 640 nm, emission in far-red: 685/70 filter, and NIR: 794/160 filter). The same cells were also imaged for eGFP activity (excitation at 488 nm, emission via 525/50 nm filter). […] In accordance with the fluoromodule emission spectrum shown in FIG. 2, this emission filter allows the microscope camera to detect a large portion of the fluoromodule emission, and consequently, the observed signal appears brighter. One must note that intensities cannot be directly compared between channels, due to considerations non-exclusively including: differences in excitation light intensities, exposure and capture times, the transmission profile of each emission filter, and the quantum efficiency of the iXON3 DU897 (back-illuminated) camera across the range of emitted wavelengths. An evenly distributed fluorescence signal is observed in these cells, with no bright foci that would indicate protein aggregation, and the fluoromodule signal intensity scales with that of eGFP.
PLASMA MEMBRANE. […]

Molecule	Emission peak contributed by extended chromophore (dL9 (SEQ. ID NO: 1))	Brightness (ε · Φ · 1 × 10^−3) [1]	Em (nm), emission maximum [1]	Ex (nm), excitation maximum [1]	ε [1]	Φ (fluorescence quantum yield) [2]	Fluorescence stability across pH range ([3]; Carmody buffer with 300 mM NaCl, pH 2-10, after three hours)	Change of mean fluorescence in each pH solution over one hour ([3]; pH 2.0-10.0, reads every minute for one hour)	NIR fluorescence in cytoplasm of HEK293 cells [4]	Longer-term stability of fluorescence across pH [3]
CN(C)c1ccc(/C=C/C=C/C(=C2C=CC(=[N+](C)C)C=C2)c2ccc(N(C)C)cc2)cc1 [SKC638]	~823 nm	–	–	–	–	–	–	–	–	–
dL9.5:SKC602: fluoromodule: FAP dL9.5 (SEQ. ID. NO. 3) non-covalently complexed with fluorogen SKC602 (protein, non-covalent fluorogen SKC602; Fluorogen Activating Peptide (FAP) sequence) SYELTQPPSVSVSPGQTARITCSGDALPKQYTYWYQQKAGQAPVLVIYKDTERPSGIPERFSGTSSGTTATLTISGVQAEDEADYYCQSADSSGSHVFFGGGTKVTVLSGGGGPGGGSGGGSGGGSGGGSYELTQPPSVSVSPGQTARITCSGDALPKQYTYWYQQKAGQAPVLVIYKDTERPSGIPERFSGTSSGTTATLTISGVQAEDEADYYCQSADSSGSHVFFGGGTKVTVLS	–	20	731 nm	702 nm	120000 M⁻¹ cm⁻¹	0.17	exceptional stability across a broad pH range	≤ 3%	produces NIR fluorescence	–
dL9.2:SKC602: fluoromodule: FAP dL9.2 (SEQ. ID. NO. 2) non-covalently complexed with fluorogen SKC602 (protein, non-covalent fluorogen SKC602; Fluorogen Activating Peptide (FAP) sequence) SYELTQPPSVSVSPGQTARITCSGDALPKQYTYWYQQKAGQAPVLVIYKDTERPSGIPERFSGTSSGTTATLTISGVQAEDEADYYCQSADSSGSYVFFGGGTKVTVLSGGGGPGGGSGGGSGGGSGGGSYELTQPPSVSVSPGQTARITCSGDALPKQYTYWYQQKAGQAPVLVIYKDTERPSGIPERFSGTSSGTTVTLTISGVQAEDEADYYCQSADSSGSYVFFGGGTKVTVLS	–	20	731 nm	702 nm	120000 M⁻¹ cm⁻¹	0.17	–	–	–	remained stable over 24 hours
dL9.2:SKC728: fluoromodule: FAP dL9.2 (SEQ. ID. NO. 2) non-covalently complexed with fluorogen SKC728 (protein, non-covalent fluorogen SKC728; Fluorogen Activating Peptide (FAP) sequence) SYELTQPPSVSVSPGQTARITCSGDALPKQYTYWYQQKAGQAPVLVIYKDTERPSGIPERFSGTSSGTTATLTISGVQAEDEADYYCQSADSSGSYVFFGGGTKVTVLSGGGGPGGGSGGGSGGGSGGGSYELTQPPSVSVSPGQTARITCSGDALPKQYTYWYQQKAGQAPVLVIYKDTERPSGIPERFSGTSSGTTVTLTISGVQAEDEADYYCQSADSSGSYVFFGGGTKVTVLS	–	19	733 nm	703 nm	90000 M⁻¹ cm⁻¹	0.21	–	–	–	remained stable over 24 hours
dL9.5:SKC728: fluoromodule: FAP dL9.5 (SEQ. ID. NO. 3) non-covalently complexed with fluorogen SKC728 (protein, non-covalent fluorogen SKC728; Fluorogen Activating Peptide (FAP) sequence) SYELTQPPSVSVSPGQTARITCSGDALPKQYTYWYQQKAGQAPVLVIYKDTERPSGIPERFSGTSSGTTATLTISGVQAEDEADYYCQSADSSGSHVFFGGGTKVTVLSGGGGPGGGSGGGSGGGSGGGSYELTQPPSVSVSPGQTARITCSGDALPKQYTYWYQQKAGQAPVLVIYKDTERPSGIPERFSGTSSGTTATLTISGVQAEDEADYYCQSADSSGSHVFFGGGTKVTVLS	–	23	733 nm	703 nm	98000 M⁻¹ cm⁻¹	0.23	–	–	–	–
